One molecule from article PMC9610207 (Viruses, 2022) can be followed below.

No end group written: not given here.

A word on the Kd: it is the concentration at which binding is half-saturated.

The target of this test is SNX27 PDZ (amino acids 740–141) (human, UniProt Q96L92 43-136). Nature of the test: fluorescence polarisation. The note with it: both partners purified. Background: Polarisation of emitted light reports the rotation of a fluorescent probe.

With SADAQSFLNGFAV (also: FITC-labeled) [FITC-labeled peptide NSP11 4393-4405 of SARS-CoV-2], the Kd was > 400 µM.
